For the experiment, the target named is T1, pKal (Homo sapiens, UniProt P03952).
T1 construct: two disulfide linked polypeptides; a heavy chain of approximately 52 kDa and a catalytic domain of approximately 34 kDa; host or cells: human plasma
As to the kind of experiment: Fab fragments (small scale) tested for inhibition against human pKal in an in vitro protease cleavage assay. The class given is biochemical. The settings on record: Table 9. As to the method: By DNA sequencing, we recovered 61 of the possible 80 antibodies (Table 9). These antibodies were produced as Fab fragments in small scale (˜20 μg) and tested for inhibition against human pKal in an in vitro protease cleavage assay using Pro-Phe-Arg-aminomethylcoumarin as the synthetic peptide substrate. […] Five antibodies were then expressed in 293T cells and purified by protein A sepharose chromatography. The antibodies were analyzed by SDS-PAGE to determine which of the inhibitory mutants are not cleaved by the host cell protease(s) (data not shown).

Numbering of substitutions follows the chain as printed.

T1 sequence (P03952 391-638 limits assumed): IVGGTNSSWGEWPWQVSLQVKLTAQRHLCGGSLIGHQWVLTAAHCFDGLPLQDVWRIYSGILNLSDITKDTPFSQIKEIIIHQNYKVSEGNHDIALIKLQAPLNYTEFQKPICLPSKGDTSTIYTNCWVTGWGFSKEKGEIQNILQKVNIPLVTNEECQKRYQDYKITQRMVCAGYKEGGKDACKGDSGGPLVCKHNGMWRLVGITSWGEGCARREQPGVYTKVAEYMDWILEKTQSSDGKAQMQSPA
T1 sequence (P03952 20-390 partner limits assumed): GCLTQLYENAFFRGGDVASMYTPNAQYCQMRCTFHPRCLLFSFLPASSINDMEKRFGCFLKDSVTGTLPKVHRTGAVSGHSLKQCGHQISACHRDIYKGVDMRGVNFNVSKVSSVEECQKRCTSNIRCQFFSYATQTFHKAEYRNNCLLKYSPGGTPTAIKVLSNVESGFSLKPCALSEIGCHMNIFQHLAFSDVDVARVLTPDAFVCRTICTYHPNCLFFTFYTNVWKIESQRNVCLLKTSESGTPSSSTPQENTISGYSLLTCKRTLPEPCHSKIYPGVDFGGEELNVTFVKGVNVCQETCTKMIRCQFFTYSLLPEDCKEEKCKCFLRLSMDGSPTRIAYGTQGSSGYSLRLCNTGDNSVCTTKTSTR

B1: X66-G08: single point mutation of M142-H08 (P1); HV-CDR3 GGLLLWFYELKSNYFDY (antibody, V domains shown)
VL: QDIQMTQSPSSLSAFVGDRVTITCRASQPIDNYLNWYHQKPGKAPKLLIYAASRLQSGVPSRLSGSGFGTDFTLTISSLQPEDFGNYYCQQSYTVPYTFGGGTKVEIR
VH: EVQLLESGGGLVQPGGSLRLSCAASGFTFSAYSMIWVRQAPGKGLEWVSYIRPSGGRTTYADSVKGRFTISRDNSKNTLYLQMNSLRAEDTAVYYCARGGLLLWFYELKSNYFDYWGQGTLVTVSSASTKGPSVFPLAPSSKS
Turning to B1, the “Inhibit as a Fab?” value is “No”.

B2: X69-A10: single point mutation of M142-H08 (P1′); HV-CDR3 GGLLLWFRPLKSNYFDY (antibody, V domains shown)
VL: B1 VL
VH: B1 VH with Y106R, E107P
With B2, the “Inhibit as a Fab?” value is reported as “No”.

B3: X69-B08: single point mutation of M142-H08 (P1′); HV-CDR3 GGLLLWFRNLKSNYFDY (antibody, V domains shown)
VL: B1 VL
VH: B1 VH with Y106R, E107N
As for B3, the “Inhibit as a Fab?” value is reported as “Yes”.

B4: X69-F09: single point mutation of M142-H08 (P1′); HV-CDR3 GGLLLWFRSLKSNYFDY (antibody, V domains shown)
VL: B1 VL
VH: B1 VH with G42S, Y106R, E107S
Turning to B4, the “Inhibit as a Fab?” value is “Yes”.

B5: X68-G05: single point mutation of M142-H08 (P3); HV-CDR3 GGLLLSFRELKSNYFDY (antibody, V domains shown)
VL: B1 VL
VH: B1 VH with T78I, W104S, Y106R
Turning to B5, the “Inhibit as a Fab?” value is listed as “No”.

B6: X68-D11: single point mutation of M142-H08 (P3); HV-CDR3 GGLLLKFRELKSNYFDY (antibody, V domains shown)
VL: B1 VL
VH: B1 VH with W104K, Y106R
Consider B6, for which the “Inhibit as a Fab?” value was “No”.

B7: X69-F05: single point mutation of M142-H08 (P1′); HV-CDR3 GGLLLWFRLLKSNYFDY (antibody, V domains shown)
VL: B1 VL
VH: B1 VH with Y106R, E107L
B7: the “Inhibit as a Fab?” value was “Yes”.

B8: X69-A12: single point mutation of M142-H08 (P1′); HV-CDR3 GGLLLWFRKLKSNYFDY (antibody, V domains shown)
VL: B1 VL
VH: B1 VH with Y106R, E107K
On to B8, for which the “Inhibit as a Fab?” value was “No”.

B9: X68-D10: single point mutation of M142-H08 (P3); HV-CDR3 GGLLLPFRELKSNYFDY (antibody, V domains shown)
VL: B1 VL
VH: B1 VH with W104P, Y106R
With B9, the “Inhibit as a Fab?” value is “No”.

B10: X68-F12: single point mutation of M142-H08 (P3); HV-CDR3 GGLLLTFRELKSNYFDY (antibody, V domains shown)
VL: B1 VL
VH: B1 VH with W104T, Y106R
As to B10, the “Inhibit as a Fab?” value is “No”.

B11: X69-E05: single point mutation of M142-H08 (P1′); HV-CDR3 GGLLLWFRRLKSNYFDY (antibody, V domains shown)
VL: B1 VL
VH: B1 VH with Y106R, E107R
Take B11: the “Inhibit as a Fab?” value is on record as “No”.

B12: X69-C12: single point mutation of M142-H08 (P1′); HV-CDR3 GGLLLWFRVLKSNYFDY (antibody, V domains shown)
VL: B1 VL
VH: B1 VH with Y106R, E107V
As for B12, the “Inhibit as a Fab?” value was “Yes”.

B13: X69-E01: single point mutation of M142-H08 (P1′); HV-CDR3 GGLLLWFRWLKSNYFDY (antibody, V domains shown)
VL: B1 VL
VH: B1 VH with Y106R, E107W
Turning to B13, the “Inhibit as a Fab?” value is reported as “Yes”.

B14: X68-E12: single point mutation of M142-H08 (P3); HV-CDR3 GGLLLCFRELKSNYFDY (antibody, V domains shown)
VL: B1 VL
VH: B1 VH with W104C, Y106R
As for B14, the “Inhibit as a Fab?” value was “No”.

B15: X68-E01: single point mutation of M142-H08 (P3); HV-CDR3 GGLLLLFRELKSNYFDY (antibody, V domains shown)
VL: B1 VL
VH: B1 VH with W104L, Y106R
With B15, the “Inhibit as a Fab?” value is given as “Yes”.

B16: X69-H10: single point mutation of M142-H08 (P1′); HV-CDR3 GGLLLWFRYLKSNYFDY (antibody, V domains shown)
VL: B1 VL
VH: B1 VH with Y106R, E107Y
Regarding B16, the “Inhibit as a Fab?” value is recorded as “No”.

B17: X68-A12: single point mutation of M142-H08 (P3); HV-CDR3 GGLLLGFRELKSNYFDY (antibody, V domains shown)
VL: B1 VL
VH: B1 VH with W104G, Y106R
On to B17, for which the “Inhibit as a Fab?” value is recorded as “No”.

B18: X69-F01: single point mutation of M142-H08 (P1′); HV-CDR3 GGLLLWFRTLKSNYFDY (antibody, V domains shown)
VL: B1 VL
VH: B1 VH with G42S, Y106R, E107T
Take B18: the “Inhibit as a Fab?” value is reported as “Yes”.

B19: X68-F05: single point mutation of M142-H08 (P3); HV-CDR3 GGLLLMFRELKSNYFDY (antibody, V domains shown)
VL: B1 VL
VH: B1 VH with W104M, Y106R
Regarding B19, the “Inhibit as a Fab?” value was “No”.

B20: X68-G01: single point mutation of M142-H08 (P3); HV-CDR3 GGLLLRFRELKSNYFDY (antibody, V domains shown)
VL: B1 VL
VH: B1 VH with W104R, Y106R
For B20, the “Inhibit as a Fab?” value was “No”.

B21: X68-F10: single point mutation of M142-H08 (P3); HV-CDR3 GGLLLQFRELKSNYFDY (antibody, V domains shown)
VL: B1 VL
VH: B1 VH with W104Q, Y106R
Regarding B21, the “Inhibit as a Fab?” value is on record as “No”.

B22: X69-D02: single point mutation of M142-H08 (P1′); HV-CDR3 GGLLLWFRHLKSNYFDY (antibody, V domains shown)
VL: B1 VL
VH: B1 VH with Y106R, E107H
Regarding B22, the “Inhibit as a Fab?” value is “No”.

B23: X68-E03: single point mutation of M142-H08 (P3); HV-CDR3 GGLLLEFRELKSNYFDY (antibody, V domains shown)
VL: B1 VL
VH: B1 VH with W104E, Y106R
As to B23, the “Inhibit as a Fab?” value was “No”.

B24: X69-D08: single point mutation of M142-H08 (P1′); HV-CDR3 GGLLLWFRALKSNYFDY (antibody, V domains shown)
VL: B1 VL
VH: B1 VH with Y106R, E107A
B24: the “Inhibit as a Fab?” value is reported as “No”.

B25: X68-A03: single point mutation of M142-H08 (P3); HV-CDR3 GGLLLDFRELKSNYFDY (antibody, V domains shown)
VL: B1 VL with G85S
VH: B1 VH with W104D, Y106R
For B25, the “Inhibit as a Fab?” value is on record as “No”.

B26: X69-A09: single point mutation of M142-H08 (P1′); HV-CDR3 … (antibody, V domains shown)
VL: B1 VL
VH: B1 VH with Y106R, E107S
Consider B26, for which the “Inhibit as a Fab?” value is given as “Yes”.

B27: X69-B02: single point mutation of M142-H08 (P1′); HV-CDR3 GGLLLWFRCLKSNYFDY (antibody, V domains shown)
VL: B1 VL
VH: B1 VH with Y106R, E107C
As for B27, the “Inhibit as a Fab?” value was “No”.

B28: X69-D09: single point mutation of M142-H08 (P1′); HV-CDR3 GGLLLWFRGLKSNYFDY (antibody, V domains shown)
VL: B1 VL
VH: B1 VH with Y106R, E107G
In the case of B28, the “Inhibit as a Fab?” value is recorded as “Yes”.

These data come from patent US20100183625A1, “Treatment of Mucositis with Kallikrein Inhibitors” (Dyax Corp., priority 2009, published 2010).
